Measured values as given in paper PMC10330821.

Target: native bovine chromogranin B (bCHGB) (bovine)
Assay: SEC; bCHGB in detergents, re-extracted from vesicles and fractionated by gel filtration; elution position compared with recombinant mCHGB

native bovine chromogranin B (bCHGB) (natural protein)
stoichiometry N: 2
